We go through 1 molecule from patent publication US20200377595A1.

This test has as its target recombinant human CD3 (human). The test can be described thus: SPR, Ab captured by anti-Fc, 37 C.

recombinant human CD3 (human), sequence (P07766 22-126, chain 1 of 2): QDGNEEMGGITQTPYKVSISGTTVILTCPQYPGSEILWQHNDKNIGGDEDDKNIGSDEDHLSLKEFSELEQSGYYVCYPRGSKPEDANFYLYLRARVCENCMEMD
recombinant human CD3 (human), sequence (P04234 22-100, chain 2 of 2, further chain): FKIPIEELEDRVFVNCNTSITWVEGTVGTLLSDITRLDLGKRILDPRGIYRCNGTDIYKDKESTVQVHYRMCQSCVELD

B1: GPC3/CtrlxCD3 trispecific antibody (protein, part only; not given: control arm and constant regions, not shown: another chain or arm of the molecule; a dimerising Fc or GST)
VH 1: QVQLVESGGGLVQPGRSLRLSCAASGFTFSNAWMHWVRQAPGKGLEWVAQIKDRANSYNTYYAESVKGRFTISRDDSKNSIYLQMNSLKTEDTAVYYCRYVHYTTYAGSSFSYGVDAWGQGTTVTVSS
VL 1: DIVMTQSPLSLPVTPGEPASISCRSSQPLVHSNRNTYLHWYQQKPGQAPRLLIYKVSNRFSGVPDRFSGSGSGTDFTLKISRVEAEDVGVYYCGQGTQVPYTFGQGTKLEIK
VH 2: QVQLVQSGAEVKKPGASVTVSCKASGYTFTDYEMHWIRQPPGEGLEWIGAIDGPTPDTAYSEKFKGRVTLTADKSTSTAYMELSSLTSEDTAVYYCTRFYSYTYWGQGTLVTVSS
VL 2: B1 VL 1
One may read the Kd as the free concentration of one partner at which half of the binding sites on the other are occupied at equilibrium, for simple one-to-one binding. For orientation: koff means a measure of how fast the partners let go of each other. What is called kon is the second-order rate constant of association. B1: the Kd worked out at 17.8 nM, the koff came to 0.00151 s⁻¹ and the on-rate (kon) was determined as 85000 M⁻¹ s⁻¹.
